From patent US20240101688A1 (MYTHIC THERAPEUTICS, published 2024) come the findings set out here.

Residue numbers refer to the chain shown, from its start.

For experiment [1], the target named is T1, MET (cMET, Sino Biological Cat. No. 10692-H08H) (UniProt P08581 25-932).
T1 construct: Soluble analyte of the BLI assays
Put plainly: BLI: antibody captured on anti-human Fc biosensor, MET in solution; one run at pH 7.4 (black) and one at pH 5.4 (grey); association 0-120 s, then dissociation. The method, then: After allowing for four days of protein expression, cell culture supernatants were collected, quantified by SDS-PAGE analysis, and the pH dependence of the variant was evaluated using biolayer interferometry (BLI) on an Octet RED 96e instrument. Briefly, cell culture supernatants were diluted based on qualitative expression level of the variant determined by visual examination of SDS-PAGE gels, 5 μL of cell culture supernatant was diluted into 195 μL of 1×PBST, pH 7.4 for high expressors, 25 μL of cell culture supernatant was diluted into 175 μL of 1×PBST, pH 7.4 for medium expressors and 100 μL of cell culture supernatant was diluted into 100 μL of 1×PBST, pH 7.4 for low expressors for loading onto the sensor tips. Diluted supernatants were then captured on an anti-human Fc sensor (Forte Bio).
(In general: BLI is a label-free optical method that tracks binding on a fibre tip over time.)

Experiment [2] deals with T2, MET Proto-Oncogene, Receptor Tyrosine Kinase (MET), on cells (human, UniProt P08581 25-1390).
T2 construct: also called cMET; c-Met
Put plainly: affinity on HUVEC against affinity on Detroit-562, flow cytometry, pH 7.4. On the procedure:
(§1) Measurement of the affinity of pH-engineered antibodies specific for MET was performed by FACS analysis on cell lines with ranges of cMET expression; Detroit-562 cells (ATCC; CCL-138), NCI-H1975 (ATCC CRL-5908) and HUVEC (C2519A, Lonza). Cell lines selected for this study were obtained from commercial sources and cultured using manufacturer recommended conditions. All cell lines were cultured upon receipt, expanded and cryopreserved at a similar passage number for use in the affinity experiments. Briefly, 1.0×10\hat{ }5 cells that express MET are plated per well in a 96-well plate in 100 μL media. The cells are washed two times with 200 μL of FACS buffer (1×PBS containing 3% Fetal Bovine Serum) at pH 7.4. The purified protein samples are diluted into FACS buffer at pH 7.4, for a titration from 100 nM to 1 pM, and added to the cells and allowed to bind for 2 hours on ice. After incubation with the primary antibodies, cells are washed twice as before, and then 100 μl of secondary goat anti-Human AF488 (IgG Cross-Adsorbed polyclonal secondary antibody), diluted 1:200, is added in FACS buffer pH 7.4, and incubated for 1 hour on ice. The plates are washed twice Binding is read on a flow cytometer (Accuri C6, BD Biosciences). Binding is observed as a shift in the FL1 signal (as a mean fluorescence intensity) versus secondary alone.

For experiment [3], the target named is T2, MET Proto-Oncogene, Receptor Tyrosine …. The experiment is described as follows: flow cytometry titration on Detroit-562 cells (125K/cell), pH 7.4; printed as Affinity at pH 7.4. The method, then:
as §1
A general note: A flow cytometer gives signals particle by particle.

Experiment [4] shares this target. Put plainly: flow cytometry titration on HUVEC cells (8k/cell), pH 7.4; printed as Affinity at pH 7.4; HUVEC cells (8k/cell), pH 7.4. The method, then:
as §1

Experiment [5] concerns the target T1, MET (cMET, Sino Biological Cat. No. …). Put plainly: BLI: antibody captured on anti-human Fc biosensor, MET in solution; three runs: pH 7.4 throughout, pH 6.4 throughout, association at pH 7.4 then release at lower pH (key on the sheet: pH 5.4; legend paragraph 84: pH 6.4); association 0-120 s.

T2 sequence (P08581 25-1390): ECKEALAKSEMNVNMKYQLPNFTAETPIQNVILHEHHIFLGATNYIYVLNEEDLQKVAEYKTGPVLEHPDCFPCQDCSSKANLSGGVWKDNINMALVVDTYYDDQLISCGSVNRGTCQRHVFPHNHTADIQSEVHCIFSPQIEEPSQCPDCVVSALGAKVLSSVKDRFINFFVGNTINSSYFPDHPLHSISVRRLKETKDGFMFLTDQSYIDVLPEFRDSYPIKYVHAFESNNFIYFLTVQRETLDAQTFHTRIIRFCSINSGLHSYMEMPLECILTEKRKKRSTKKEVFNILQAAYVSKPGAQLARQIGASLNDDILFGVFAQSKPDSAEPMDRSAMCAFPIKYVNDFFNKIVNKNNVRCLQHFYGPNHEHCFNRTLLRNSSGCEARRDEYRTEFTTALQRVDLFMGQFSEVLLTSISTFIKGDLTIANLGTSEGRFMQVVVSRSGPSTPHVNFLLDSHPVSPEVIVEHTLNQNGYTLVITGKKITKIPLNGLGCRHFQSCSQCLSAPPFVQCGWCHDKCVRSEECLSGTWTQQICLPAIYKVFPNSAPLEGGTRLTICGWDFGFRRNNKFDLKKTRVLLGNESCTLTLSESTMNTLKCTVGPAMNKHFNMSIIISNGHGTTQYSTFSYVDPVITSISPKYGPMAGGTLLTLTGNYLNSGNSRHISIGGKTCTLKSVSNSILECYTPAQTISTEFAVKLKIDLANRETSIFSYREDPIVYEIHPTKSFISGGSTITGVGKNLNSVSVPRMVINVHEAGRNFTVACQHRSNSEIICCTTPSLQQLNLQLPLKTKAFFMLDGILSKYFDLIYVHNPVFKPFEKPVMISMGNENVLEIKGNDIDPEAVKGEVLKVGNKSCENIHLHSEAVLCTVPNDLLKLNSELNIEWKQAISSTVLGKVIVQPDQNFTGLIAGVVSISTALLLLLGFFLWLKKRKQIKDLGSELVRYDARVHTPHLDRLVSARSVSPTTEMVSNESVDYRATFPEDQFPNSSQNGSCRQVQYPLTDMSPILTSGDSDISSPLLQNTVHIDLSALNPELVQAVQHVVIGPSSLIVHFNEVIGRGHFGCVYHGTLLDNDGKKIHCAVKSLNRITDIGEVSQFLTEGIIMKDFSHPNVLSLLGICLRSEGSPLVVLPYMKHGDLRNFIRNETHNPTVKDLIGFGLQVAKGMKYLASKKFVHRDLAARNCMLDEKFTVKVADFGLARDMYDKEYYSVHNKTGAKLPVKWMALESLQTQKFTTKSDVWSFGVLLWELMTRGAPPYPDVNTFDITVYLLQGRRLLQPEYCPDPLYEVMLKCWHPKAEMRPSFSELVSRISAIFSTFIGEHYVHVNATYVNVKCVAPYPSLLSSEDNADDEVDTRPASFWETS
T1 sequence (P08581 25-932 limits assumed): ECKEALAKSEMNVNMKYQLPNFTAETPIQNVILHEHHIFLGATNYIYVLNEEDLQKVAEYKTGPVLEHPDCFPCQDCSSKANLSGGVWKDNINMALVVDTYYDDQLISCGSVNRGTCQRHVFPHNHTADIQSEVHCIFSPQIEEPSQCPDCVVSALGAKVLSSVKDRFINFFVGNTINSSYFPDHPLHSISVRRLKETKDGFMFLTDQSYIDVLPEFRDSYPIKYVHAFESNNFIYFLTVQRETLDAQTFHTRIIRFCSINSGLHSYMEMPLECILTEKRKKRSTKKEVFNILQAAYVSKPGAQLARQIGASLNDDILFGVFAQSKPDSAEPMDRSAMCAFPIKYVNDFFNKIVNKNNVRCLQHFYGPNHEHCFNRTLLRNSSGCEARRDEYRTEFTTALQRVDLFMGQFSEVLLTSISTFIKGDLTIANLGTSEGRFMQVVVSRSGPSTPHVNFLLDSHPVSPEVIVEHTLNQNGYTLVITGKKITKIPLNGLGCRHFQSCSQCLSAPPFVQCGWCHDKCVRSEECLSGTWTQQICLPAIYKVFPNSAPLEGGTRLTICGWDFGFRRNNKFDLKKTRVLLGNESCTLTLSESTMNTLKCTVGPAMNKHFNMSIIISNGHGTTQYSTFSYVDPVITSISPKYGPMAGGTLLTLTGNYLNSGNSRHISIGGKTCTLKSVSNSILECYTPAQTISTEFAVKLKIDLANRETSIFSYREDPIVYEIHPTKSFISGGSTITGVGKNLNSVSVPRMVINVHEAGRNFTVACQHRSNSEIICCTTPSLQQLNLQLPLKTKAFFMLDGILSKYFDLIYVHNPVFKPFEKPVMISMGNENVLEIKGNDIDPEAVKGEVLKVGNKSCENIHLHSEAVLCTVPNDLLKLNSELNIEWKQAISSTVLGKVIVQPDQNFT

B1: MYT4313 (antibody, V domains shown)
VH: QVQLVQSGAEVKKPGASVKVSCKASGYTFTSYWMHWVKQAPGQGLDWIGYIKPSTDNTHYNQKFKDKATLTADKSTSTAYMELSSLRSEDTAVYYCARSYGHYPLMDYWGQGTTVTVSS
VL: QIVLTQSPAILSLSPGERATLSCSASSSVTSNYLYWYQQKPGSSPKLLIYSTSNLASGVPARFSGSGSGTSYTLTISSLEAEDAASYFCHQWSSYPPTFGSGTKLEIKR
notes: P3D12 variant
Turning to B1, the binding result in experiment [1] is listed as “binds”.

B2: MYT4325 (antibody, V domains shown)
VH: B1 VH with D107H
VL: B1 VL
notes: P3D12 variant
Broadly, the Kd is the constant that tells how readily two partners part at equilibrium. As to B2, in experiment [2], the “Fold Avidity” value was above 220 fold. Besides, the Kd is 903 pM in experiment [3] and above 200000 pM in experiment [4].

B3: MYT4940 (antibody, V domains shown)
VH: QVQLVQSGAEVKKPGASVKVSCKASGYIFTAYTMHWVRQAPGQGLEWMGWIKPNNGLANYAQKFQGRVTMTRDTSISTAYMELSRLRSDDTAVYYCARHEITTEFDHWGQGTLVTVSS
VL: DIVMTQSPDSLAVSLGERATINCKSSESVDSYANSHLHWYQQKPGQPPKLLIYRASTRESGVPDRFSGSGSGTDFTLTISSLQAEDVAVYYCQQSKEDPLTFGGGTKVEIKR
notes: Telisotuzumab variant
Take B3: in experiment [5], the binding result is “binds”.
